From US5837516A, “Subtilisin variants capable of cleaving substrates containing basic residues” (Genentech, Inc., priority 1995, dated 1998)
Numbering of substitutions follows the chain as printed. Names and notes keep the numbering of the source. Each block holds one molecule with its values, some of them ahead of it. Residues, ends and D or L forms follow the SMILES beside them.

What was measured:
[1] = target: T1, subtilisin BPN' variant N62D/G166D (mature enzyme SEQ ID NO: 72) (Bacillus amyloliquefaciens, UniProt P00782, G273D/N169D); experiment: Kinetic analysis, hydrolysis of succinyl-tetrapeptide-pNA substrates; assay type: biochemical
T1 construct: made in house; host or cells: Bacillus subtilis BG2036 (protease-deficient), secreted
T1 sequence (P00782 108-382 N169D/G273D): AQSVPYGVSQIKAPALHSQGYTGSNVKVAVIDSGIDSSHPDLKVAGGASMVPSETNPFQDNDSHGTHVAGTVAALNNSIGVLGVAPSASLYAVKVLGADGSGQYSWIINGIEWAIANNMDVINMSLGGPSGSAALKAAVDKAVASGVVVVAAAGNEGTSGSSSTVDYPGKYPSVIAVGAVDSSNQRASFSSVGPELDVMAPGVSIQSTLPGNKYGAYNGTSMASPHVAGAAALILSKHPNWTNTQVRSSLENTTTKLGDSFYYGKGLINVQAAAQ
Procedure: (§1) The mature N62D/Y104D/G166D variant was purified and analyzed for its ability to hydrolyze several tetrapeptide-pNA substrates.
(§2) Kinetic analysis of WT, N62D/G166D, and N62D/Y104D/G166D subtilisin BPN'
(§3) Subtilisins were assayed by measuring the initial rates of hydrolysis of p-nitroanilide tetrapeptide substrates in 0.4 mL 20 mM Tris-Cl pH 8.2, 4% (v/v) dimethyl sulfoxide at (25±0.2)° C. as described previously (Estell, D. A., Graycar, T. P., Miller, J. V., Powers, D. B., Burnier, J. P., Ng, P. G. and Wells, J. A. (1986)Science 233:659-663). Enzyme concentrations (E)0 were determined spectrophotometrically using E280 nm 0.1%=1.17 (Matsubara, H.; Kasper, C B.; Brown, D. M.; and Smith, E. L. (1965)J. Biol. Chem.,240:1125-1130.), and were typically 5-50 nM in reactions. Initial rates were determined for nine to twelve different substrate concentrations over the range of 0.001-2.0 mM. Plots of initial rates (v) versus substrate concentration (S) were fitted to the Michaelis-Menton equation, [formula] to determine the kinetic constants kcat and Km (Fersht, A. in "Enzyme Structure and Mechanism", Second edition, Freeman and Co., N.Y.) using the program Kaleidagraph (Synergy Software, Reading, Pa.).

[2] = target: T2, subtilisin BPN' variant N62D/G166E (Bacillus amyloliquefaciens, UniProt P00782, G273E/N169D); experiment: Kinetic analysis, hydrolysis of suc-AAXX-pna substrates; assay type: biochemical; conditions: Lys-Lys versus Lys-Phe substrate
T2 construct: correct folding and maturation of subtilisin requires autolytic cleavage of its propeptide; made in house; host or cells: Bacillus subtilis BG2036 (protease-deficient), secreted
Procedure: Despite the less than additive effects seen for the two charged substitutions in the S2 site, we decided to combine the best S2 site variant (N62D) with either of the acidic substitutions in the S1 site. The two double mutants, N62D/G166E and N62D/G166D, were analyzed with substrates having the form, suc-AAXX-pna (SEQ ID NO. 71) where XX was either KK (SEQ ID NO. 66), KR (SEQ ID NO. 67), KF (SEQ ID NO. 62), PK (SEQ ID NO. 58), PF (SEQ ID NO. 56) or AF (SEQ ID NO. 63) (FIG. 4). The wild-type preference was AF>PF^~ KF>KK^~ PK>KR, whereas the double mutants had the preference KK>KR>KF>PK^~ AF>PF. […]
as §3, with “Plots of initial rates (v) versus substrate concentration (S) were fitted to the Michaelis-Menton equation, [formula] to determine the kinetic constants kcat and Km (Fersht, A. in "Enzyme Structure and Mechanism", Second edition, Freeman and Co., N.Y.) using the program Kaleidagraph (Synergy Software, Reading, Pa.).” left out

[3] = target: T3, subtilisin BPN' variant G166D (Bacillus amyloliquefaciens, UniProt P00782, G273D); experiment: Kinetic analysis, hydrolysis of suc-AAPX-pna substrates; assay type: biochemical; conditions: Lys P1 versus Phe P1 substrate
T3 construct: correct folding and maturation of subtilisin requires autolytic cleavage of its propeptide; made in house; host or cells: Bacillus subtilis BG2036 (protease-deficient), secreted
Excerpt: To probe the effects of the G166E and G166D on specificity at the P1 position we used substrates having the form suc-AAPX-pna (SEQ ID NO: 69) where X was either Lys (SEQ ID NO. 58), Arg (SEQ ID NO. 59), Phe (SEQ ID NO. 56), Met (SEQ ID NO. 60) or Gln (SEQ ID NO. 61). Whereas the wild-type enzyme preferred Phe>Met>Lys>Arg>Gln, the G166E preferred Lys^~ Phe>Arg^~ Met>Gln, and G166D preferred Lys>Phe^~ Arg^~ Met>Gln. Thus, both the acidic substitutions at position 166 caused a shift in preference for basic residues at the P1 site, as previously reported (Wells, J. A., Powers, D. B., Bott, R. R., Graycar, T. P.and Estell, D. A. (1987a), Proc. Natl. Acad. Sci. USA 84:1219-1223).
as §3, with “Plots of initial rates (v) versus substrate concentration (S) were fitted to the Michaelis-Menton equation, [formula] to determine the kinetic constants kcat and Km (Fersht, A. in "Enzyme Structure and Mechanism", Second edition, Freeman and Co., N.Y.) using the program Kaleidagraph (Synergy Software, Reading, Pa.).” left out

[4] = target: T4, subtilisin BPN' variant N62D/Y104D/G166D (SEQ ID NO: 75) (Bacillus amyloliquefaciens, UniProt P00782, G273D/N169D/Y211D); experiment: Kinetic analysis, hydrolysis of succinyl-tetrapeptide-pNA substrates; assay type: biochemical; conditions: relative to succinyl-RAKR-pNA
T4 construct: the mature enzyme +1 to +275; made in house; host or cells: Bacillus subtilis BG2036 (protease-deficient), secreted
T4 sequence (P00782 108-382 N169D/Y211D/G273D): T1 sequence (P00782 108-382 N169D/G273D) with Y104D
Procedure: as §1, §2, §3

succinyl-AAKR-pNA = target: T5, succinyl-AAKR-pNA
T5 sequence (peptide, N-terminal succinyl; C-terminal p-nitroanilide (pNA)): AAKR

succinyl-AAPF-pNA = target: T6, succinyl-AAPF-pNA
T6 sequence (peptide, N-terminal succinyl; C-terminal p-nitroanilide (pNA)): AAPF

[5] = substrate: C[C@H](NC(=O)CCC(=O)O)C(=O)N[C@@H](C)C(=O)N1CCC[C@H]1C(=O)N[C@@H](Cc1ccccc1)C(=O)Nc1ccc([N+](=O)[O-])cc1; experiment: Kinetic analysis, hydrolysis of succinyl-tetrapeptide-pNA substrates; assay type: biochemical, Bacillus amyloliquefaciens; conditions: 20 mM Tris-Cl pH 8.2, 4% DMSO, 25 C
Procedure: as §1, §2, §3

[6] = substrate: C[C@H](NC(=O)CCC(=O)O)C(=O)N[C@@H](C)C(=O)N[C@@H](CCCCN)C(=O)N[C@@H](CCCNC(=N)N)C(=O)Nc1ccc([N+](=O)[O-])cc1; experiment: as above; assay type: biochemical, Bacillus amyloliquefaciens; conditions: 20 mM Tris-Cl pH 8.2, 4% DMSO, 25 C
Procedure: as §1, §2, §3

[7] = target: T7, succinyl-Ala-Ala-Pro-Lys-pNa
T7 sequence (peptide, N-terminal succinyl; C-terminal p-nitroanilide (pNA)): AAPK

[8] = target: T8, succinyl-Ala-Ala-Lys-Lys-pNa
T8 sequence (peptide, N-terminal succinyl; C-terminal p-nitroanilide (pNA)): AAKK

succinyl-KAKR-pNA = target: T9, succinyl-KAKR-pNA
T9 sequence (peptide, N-terminal succinyl; C-terminal p-nitroanilide (pNA)): KAKR

succinyl-RAKR-pNA = target: T10, succinyl-RAKR-pNA
T10 sequence (peptide, N-terminal succinyl; C-terminal p-nitroanilide (pNA)): RAKR

[9] = substrate: C[C@H](NC(=O)[C@H](CCCCN)NC(=O)CCC(=O)O)C(=O)N[C@@H](CCCCN)C(=O)N[C@@H](CCCNC(=N)N)C(=O)Nc1ccc([N+](=O)[O-])cc1; experiment: Kinetic analysis, hydrolysis of succinyl-tetrapeptide-pNA substrates; assay type: biochemical, Bacillus amyloliquefaciens; conditions: other: N62D/Y104D/G166D, 20 mM Tris-Cl pH 8.2, 4% DMSO, 25 C
Procedure: as §1, §2, §3

[10] = substrate: C[C@H](NC(=O)[C@H](CCCNC(=N)N)NC(=O)CCC(=O)O)C(=O)N[C@@H](CCCCN)C(=O)N[C@@H](CCCNC(=N)N)C(=O)Nc1ccc([N+](=O)[O-])cc1; experiment: as above; assay type: biochemical, Bacillus amyloliquefaciens; conditions: other: N62D/Y104D/G166D, 20 mM Tris-Cl pH 8.2, 4% DMSO, 25 C
Procedure: as §1, §2, §3

[11] = target: hGH-AP fusion protein with substrate linker Asn-Leu-Met-Arg-Lys (E. coli); conditions: scale: times faster than the Thr-Ala-Ser-Arg-Arg and Asn-Leu-Thr-Ala-Arg fusions

T3 sequence (P00782 108-382 G273D): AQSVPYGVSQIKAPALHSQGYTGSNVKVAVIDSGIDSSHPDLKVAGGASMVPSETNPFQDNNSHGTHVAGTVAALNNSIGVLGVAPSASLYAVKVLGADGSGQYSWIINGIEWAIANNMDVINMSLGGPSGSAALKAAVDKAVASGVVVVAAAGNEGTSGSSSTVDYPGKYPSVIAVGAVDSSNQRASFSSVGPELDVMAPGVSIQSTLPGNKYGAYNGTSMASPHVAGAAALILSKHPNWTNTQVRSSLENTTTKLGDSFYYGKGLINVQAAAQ
T2 sequence (P00782 108-382 N169D/G273E): as the sequence (P00782 108-382 G273D) above, with N62D, D166E counted along it

Molecule: C[C@H](NC(=O)CCC(=O)O)C(=O)N[C@@H](C)C(=O)N[C@@H](CCCCN)C(=O)N[C@@H](CCCCN)C(=O)Nc1ccc([N+](=O)[O-])cc1 [Lys-Lys substrate] (HELM PEPTIDE1{[O=C(O)CCC(=O)[*:2]].A.A.K.K.[O=[N+]([O-])c1ccc(N[*:1])cc1]}$$$$V2.0)
- ratio of catalytic efficiencies, times faster cleaved than the Lys-Phe substrate ([1]; Lys-Lys versus Lys-Phe substrate): 18 times
- ratio of catalytic efficiencies, times faster cleaved than the Lys-Phe substrate [2]: about 8 times

Molecule: C[C@H](NC(=O)CCC(=O)O)C(=O)N[C@@H](C)C(=O)N1CCC[C@H]1C(=O)N[C@@H](CCCCN)C(=O)Nc1ccc([N+](=O)[O-])cc1 [Lys P1 substrate] (HELM PEPTIDE1{[O=C(O)CCC(=O)[*:2]].A.A.P.K.[O=[N+]([O-])c1ccc(N[*:1])cc1]}$$$$V2.0)
- ratio of catalytic efficiencies, times faster cleaved than the Phe P1 substrate [3]: about 3 times

Molecule: C[C@H](NC(=O)CCC(=O)O)C(=O)N[C@@H](C)C(=O)N[C@@H](CCCCN)C(=O)N[C@@H](CCCNC(=N)N)C(=O)Nc1ccc([N+](=O)[O-])cc1 [succinyl-AAKR-pNA] (HELM PEPTIDE1{[O=C(O)CCC(=O)[*:2]].A.A.K.R.[O=[N+]([O-])c1ccc(N[*:1])cc1]}$$$$V2.0)
- ratio of catalytic efficiency for succinyl-AAKR-pNA versus succinyl-AAPF-pNA [1]: 1.9×10^2
- catalytic efficiency (kcat/Km), fold less efficiently hydrolyzed than succinyl-RAKR-pNA [4]: 60 fold

B2: subtilisin BPN' variant G166D (enzyme)
chain: T1 sequence (P00782 108-382 N169D/G273D) with D62N
- ratio of catalytic efficiencies, hydrolysis of succinyl-tetrapeptide-pNA (times faster than the Phe P1 substrate) [7]: 3

Further lines, with some results ahead:

- kcat/Km, hydrolysis of succinyl-tetrapeptide-pNA (succinyl-AAKR-pNA): 1700 M⁻¹ s⁻¹
- kcat/Km, hydrolysis of succinyl-tetrapeptide-pNA (succinyl-AAPF-pNA): 260000 M⁻¹ s⁻¹
B1: subtilisin BPN' from Bacillus amyloliquefaciens, wild type (WT), SEQ ID NO: 90 (Bacillus amyloliquefaciens) (protein)
chain: T1 sequence (P00782 108-382 N169D/G273D) with D62N, D166G
notes: correct folding and maturation of subtilisin requires autolytic cleavage of its propeptide
- Km ([5]; other: WT): 110 µM
- kcat ([5]; other: WT): 29 s⁻¹
- kcat/Km ([5]; other: WT): 260000 M⁻¹ s⁻¹
- Km ([6]; other: WT): 1700 µM
- kcat ([6]; other: WT): 2.8 s⁻¹

- ratio of catalytic efficiencies, hydrolysis of succinyl-tetrapeptide-pNA (times faster than the Lys-Phe substrate) [8]: 8
B3: subtilisin BPN' variant N62D/G166E (enzyme)
chain: T1 sequence (P00782 108-382 N169D/G273D) with D166E

- kcat/Km, hydrolysis of succinyl-tetrapeptide-pNA (succinyl-AAKR-pNA): 8100 M⁻¹ s⁻¹
- kcat/Km, hydrolysis of succinyl-tetrapeptide-pNA (succinyl-AAPF-pNA): 8 M⁻¹ s⁻¹
- kcat/Km, hydrolysis of succinyl-tetrapeptide-pNA (succinyl-KAKR-pNA): 340000 M⁻¹ s⁻¹
- kcat/Km, hydrolysis of succinyl-tetrapeptide-pNA (succinyl-RAKR-pNA): 490000 M⁻¹ s⁻¹
B4: subtilisin BPN' variant N62D/Y104D/G166D (SEQ ID NO: 75) (Bacillus amyloliquefaciens; G273D/N169D/Y211D) (protein)
chain: T1 sequence (P00782 108-382 N169D/G273D) with Y104D
notes: the mature enzyme +1 to +275; made in house; host or cells: Bacillus subtilis BG2036 (protease-deficient), secreted
- Km ([6]; other: N62D/Y104D/G166D): 34 µM
- kcat ([6]; other: N62D/Y104D/G166D): 0.27 s⁻¹
- kcat/Km ([6]; other: N62D/Y104D/G166D): 8100 M⁻¹ s⁻¹
- Km [9]: 29 µM
- kcat [9]: 9.8 s⁻¹
- kcat/Km [9]: 340000 M⁻¹ s⁻¹
- Km [10]: 23 µM
- kcat [10]: 11 s⁻¹
- kcat/Km [10]: 490000 M⁻¹ s⁻¹

- kcat/Km, hydrolysis of succinyl-tetrapeptide-pNA (succinyl-AAKR-pNA): 370000 M⁻¹ s⁻¹
- kcat/Km, hydrolysis of succinyl-tetrapeptide-pNA (succinyl-AAPF-pNA): 1900 M⁻¹ s⁻¹
- ratio of catalytic efficiencies, hydrolysis of succinyl-tetrapeptide-pNA (times faster than a Lys-Phe substrate) [8]: 18
- rate of cleavage of the fusion protein from the hGH receptor plate (released AP activity) [11]: 10
B5: subtilisin BPN' variant N62D/G166D (mature enzyme SEQ ID NO: 72) (Bacillus amyloliquefaciens; G273D/N169D) (protein)
chain: T1 sequence (P00782 108-382 N169D/G273D)
notes: made in house; host or cells: Bacillus subtilis BG2036 (protease-deficient), secreted
- Km ([5]; other: N62D/G166D): 1800 µM
- kcat ([5]; other: N62D/G166D): 3.4 s⁻¹
- kcat/Km ([5]; other: N62D/G166D): 1900 M⁻¹ s⁻¹
- Km ([6]; other: N62D/G166D): 41 µM
- kcat ([6]; other: N62D/G166D): 15 s⁻¹
- kcat/Km ([6]; other: N62D/G166D): 370000 M⁻¹ s⁻¹
